In patent US20180371083A1:

Legend:
[1] = target: human TIGIT-His protein (extracellular domain of human TIGIT fused to His tag) (human) (UniProt Q495A1); assay: SPR, Biacore T200; antibody captured on anti-mouse IgG, human TIGIT-His as analyte; 1:1 Langmuir fit
[2] = target: human TIGIT expressed on cells (CHO-K1 transfectants; Jurkat over-expressing human TIGIT) (human) (UniProt Q495A1); assay: cell-based or functional assay
Chain of human TIGIT expressed on cells (CHO-K1 transfectants; Jurkat over-expressing human TIGIT) (human) (Q495A1 25-244): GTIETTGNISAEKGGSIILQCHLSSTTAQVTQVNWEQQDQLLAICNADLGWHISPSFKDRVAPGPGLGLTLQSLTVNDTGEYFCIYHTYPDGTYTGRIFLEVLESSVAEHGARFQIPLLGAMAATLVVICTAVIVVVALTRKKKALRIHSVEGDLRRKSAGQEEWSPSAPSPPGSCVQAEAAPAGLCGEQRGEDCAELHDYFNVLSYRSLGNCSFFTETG

Chain of human TIGIT-His protein (extracellular domain of human TIGIT fused to His tag) (human) (Q495A1 25-141 limits assumed): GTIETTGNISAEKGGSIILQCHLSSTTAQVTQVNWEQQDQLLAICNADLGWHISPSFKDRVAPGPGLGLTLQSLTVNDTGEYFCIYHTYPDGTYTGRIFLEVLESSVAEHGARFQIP

Kd [1]: 0.0363 nM | EC50, rescue of IL-2 in hTIGIT-Jurkat / THP-1 co-culture with CD155-Fc or CD112-Fc [2]: 0.23 µg/mL
Substance: commercial anti-hTIGIT antibody, clone MBSA43 (eBioscience Cat#12-9500-42)
